According to PMC5003816:

Molecular target: ubiquitin conjugates (MEFs)
Assay: UBQLN2 IP and western blot quantification (primary MEFs)
Details: n = 3; read off a plot

ratio to parent: 1.4
Substance: UBQLN2 (mouse, endogenous, wild type) (from UniProt Q9QZM0) mP520T
